Test results: patent publication US20230039401A1, “COMPOSITIONS AND METHODS FOR TREATING NRP2-ASSOCIATED DISEASES” (aTyr Pharma, Inc., priority 2018, published 2023)
Entries after “also recorded” stand apart in the source; their conditions may differ.

B1: VEGF-C: commercial NRP2 ligand protein (R&D Systems) (protein)
chain: TEETIKFAAAHYNTEILKSIDNEWRKTQCMPREVCIDVGKEFGVATNTFFKPPCVSVYRCGGCCNSEGLQCMNTSTSYLSKTLFEITVPLSQGPKPVTISFANHTSCRCMSKLDVYRQVHSIIRR
B2: VEGF-A145: commercial protein (R&D Systems #7626-VE-CF) (protein)
chain: APMAEGGGQNHHEVVKFMDVYQRSYCHPIETLVDIFQEYPDEIEYIFKPSCVPLMRCGGCCNDEGLECVPTEESNITMQIMRIKPHQGQHIGEMSFLQHNKCECRPKKDRARQEKKSVRGKGKGQKRKRKKSRYKSWSVCDKPRR
B3: VEGF-A121: commercial protein (Peprotech #100-20A) (protein)
chain: APMAEGGGQNHHEVVKFMDVYQRSYCHPIETLVDIFQEYPDEIEYIFKPSCVPLMRCGGCCNDEGLECVPTEESNITMQIMRIKPHQGQHIGEMSFLQHNKCECRPKKDRARQEKCDKPRR
B4: SEMA3C: commercial protein (R&D Systems #5570-S3) (protein)
chain: GSSQPQARVYLTFDELRETKTSEYFSLSHHPLDYRILLMDEDQDRIYVGSKDHILSLNINNISQEALSVFWPASTIKVEECKMAGKDPTHGCGNFVRVIQTFNRTHLYVCGSGAFSPVCTYLNRGRRSEDQVFMIDSKCESGKGRCSFNPNVNTVSVMINEELFSGMYIDFMGTDAAIFRSLTKRNAVRTDQHNSKWLSEPMFVDAHVIPDGTDPNDAKVYFFFKEKLTDNNRSTKQIHSMIARICPNDTGGLRSLVNKWTTFLKARLVCSVTDEDGPETHFDELEDVFLLETDNPRTTLVYGIFTTSSSVFKGSAVCVYHLSDIQTVFNGPFAHKEGPNHQLISYQGRIPYPRPGTCPGGAFTPNMRTTKEFPDDVVTFIRNHPLMYNSIYPIHKRPLIVRIGTDYKYTKIAVDRVNAADGRYHVLFLGTDRGTVQKVVVLPTNNSVSGELILEELEVFKNHAPITTMKISSKKQQLYVSSNEGVSQVSLHRCHIYGTACADCCLARDPYCAWDGHSCSRFYPTGKRRSRRQDVRHGNPLTQCRGFNLKAYRNAAEIVQYGVKNNTTFLECAPKSPQASIKWLLQKDKDRRKEVKLNERIIATSQGLLIRSVQGSDQGLYHCIATENSFKQTIAKINFKVLDSEMVAVVTDKWSPWTWASSVRALPFHPKDIMGAFSHSEMQMINQYCKDTRQQHQQGDESQKMRGDYGKLKALINS
modifications: left off: a dimerising Fc or GST
B5: mouse SEMA3F: commercial protein (R&D Systems #3237-S3) (protein)
chain: ATPIQDQLPATPRVRLSFKELKATGTAHFFNFLLNTTDYRILLKDEDHDRMYVGSKDYVLSLDLHDINREPLIIHWAASPQRIEECILSGKDGNGECGNFVRLIQPWNRTHLYVCGTGAYNPMCTYVNRGRRAQALPWTQMQVVRGRGSRATDGADRPTPTAPRQDYIFYLEPEKLESGKGKCPYDPKLDTASALINEELYAGVYIDFMGTDAAIFRTLGKQTAMRTDQYNSRWLNDPSFIHAELIPDSAERNDDKLYFFFRERSAEAPQNPAVYARIGRICLNDDGGHCCLVNKWSTFLKARLVCSVPGEDGIETHFDELQDVFVQQTQDVRNPVIYAVFTSSGSVFRGSAVCVYSMADIRMVFNGPFAHKEGPNYQWMPFSGKMPYPRPGTCPGGTFTPSMKSTKDYPDEVINFMRTHPLMYQAVYPLQRRPLVVRTGAPYRLTTVAVDQVDAADGRYEVLFLGTDRGTVQKVIVLPKDDQEVEELMLEEVEVFKEPAPVKTMTISSKRQQLYVASAVGVTHLSLHRCQAYGAACADCCLARDPYCAWDGQACSRYTASSKRRSRRQDVRHGNPIRQCRGFNSNANKNAVESVQYGVAGSAAFLECQPRSPQATVKWLFQRDPSDRRREIRAEDRFLRTEQGLLLRALQLGDRGLYSCTATENNFKHIVTRVQLHVLGRDAVHAALFPPLAVSVPPPPGTGPPTPPYQELAQLLAQPEVGLIHQYCQGYWRHVPPRPREAPGALRPPELQDQKKPRNRRHHPPDT
modifications: left off: a dimerising Fc or GST
B6: PlGf-2/Heparin (protein)
chain: LPAVPPQQWALSAGNGSSEVEVVPFQEVWGRSYCRALERLVDVVSEYPSEVEHMFSPSCVSLLRCTGCCGDENLHCVPVETANVTMQLLKIRSGDRPSYVELTFSQHVRCECRPLREKMKPERRRPKGRGKRRREKQRPTDCHLCGDAVPRR

What was measured:
[1] = molecular target: T1, NRP2:Fc-HRS(2-60) interaction (Homo sapiens, UniProt O60462); assay: SPR competition of known NRP2 ligands with the NRP2:Fc-HRS(2-60) interaction; assay type: binding; conditions: for effect of ligand on binding of NRP2 to Fc-HRS(2-60) (SPR): NRP2 in the presence of the ligand over immobilized Fc-HRS(2-60); for Competes with Fc-HRS(2-60) for NRP2 binding: SPR, NRP2 binding to immobilized Fc-HRS(2-60) in presence of ligand
T1 construct: Fc (C); purchased R&D Systems 2215-N2
Description: (§1) Protein-Protein Interaction studies. […] SPR experiments were conducted on a Bio-Rad ProteOn XPR36 Protein Interaction Array instrument. Proteins were immobilized on different channels of ProteOn GLC sensor chips through amine coupling. Analyte proteins were flowed over the immobilized proteins. The sensor chip surface was regenerated between each analyte run to remove interacting proteins. Data was double referenced against an interspot (untreated chip surface) and a blank surface (activated and deactivated for amine coupling).
Studies were performed to confirm the binding specificity of Neuropilin 2 (NRP2) to Fc-HRS(2-60) using orthologous methods to those used in the large scale Retrogenix screening (Example 1). In a series of experiments, Fc-HRS(2-60) and related proteins were immobilized on SPR chips, and NRP2 and related proteins were flowed as analytes. Upon confirmation of the NRP2:Fc-HRS(2-60) interaction, the dependence on divalent cations was tested as NRP2 is known to have Ca^2+ binding sites. The effects of previously characterized NRP2 ligands on the NRP2: Fc-HRS(2-60) interaction was also tested to determine if these known ligands have competitive effects on the Fc-HRS(2-60) interaction.
(§2) A subset of the known ligands of NRP2 appears to compete binding of Fc-HRS(2-60) to NRP2.

NRP2 = molecular target: T2, NRP2 (Homo sapiens, UniProt O60462); assay: SPR binding of known ligands to NRP2; conditions: for Binding to NRP2 observed by SPR: known NRP2 ligands; for binding of ligand to NRP2: applicant's system
T2 construct: Fc (C); purchased R&D Systems 2215-N2
Description: as §1, §2

[2] = molecular target: T3, cell-expressed NRP2 (NRP2a-GFP fusion protein on HEK293T cells) (Homo sapiens, UniProt O60462); assay: Immunofluorescence binding of Fc-HRS (2-60) to HEK293T cells overexpressing NRP2v2-GFP; conditions: 175 nM Fc-HRS (2-60)/anti-Fc-PE; pre-incubation with the test agent
T3 construct: host or cells: HEK293T
Description: Reagents: • PE anti-human IgG Fc Antibody, clone HP6017, Biolegend cat 409304 • Mouse Anti-HRS monoclonal antibody (1-96) Clone 1C8, Abnova cat H00003035-M01 • Mouse IgG2a, Isotype control antibody (MOPC-173), Biolegend cat 400223 • Recombinant Human VEGF-C Protein, R&D Systems, cat 2179-VC-025/CF • Formaldehyde, 16%, methanol free, Ultra Pure, Polysciences, cat 18814-10 • Hoechst 33342, Trihydrochloride, Trihydrate, ThermoFisher Scientific, cat H1399 • Fc-HRS (2-60) was prepared as described in PCT application PCT/US2014/029699 • Gibco DMEM, High Glucose, ThermoFisher Scientific, cat 11965092 • PolyJet™ In Vitro DNA Transfection Reagent, SignaGen, cat SL100688 • Neuropilin 2 (NRP2) (NM_003872) Human ORF Clone, Origene, cat RG220706 • Collagen Coating Solution, Cell Applications Cat 125-100 • 1×PBS containing 1% BSA, 0.9 mM CaCl2 and 20 mM glucose • Binding buffer containing 1% normal mouse IgG (sigma cat 18765) and 2.5% (Human Fc Receptor Binding Inhibitor, ebioscience 14-9161-73).
Cell culture and transfection. […]
Immunofluorescence assays on cultured cells. Binding and quantitation of Fc-HRS (2-60) to cell-expressed NRP2 was achieved using immunofluorescence microscopy. […] The Hoechst stain was replaced with 1×PBS and subsequently read on an IN Cell Analyzer 2200. 20× images were acquired and analyzed using In Cell Analyzer 1000 Workstation software. […]

| Molecule | effect of ligand on binding of NRP2 to Fc-HRS(2-60) (SPR) [1] | Competes with Fc-HRS(2-60) for NRP2 binding [1] | Binding to NRP2 observed by SPR (NRP2) | inhibition of Fc-HRS (2-60) binding to cells expressing NRP2a-GFP [2] | binding of ligand to NRP2 (NRP2) |
| --- | --- | --- | --- | --- | --- |
| B1 | reduced or ablated | Yes | Yes | binding inhibition; also recorded: direct competition | – |
| B2 | unaffected | No | No | – | does not bind NRP2 in our system |
| B3 | unaffected | No | No | – | does not bind |
| B4 | do not affect | No | Yes | – | do bind |
| B5 | do not affect | No | Yes | – | do bind |
| B6 | – | Yes | – | – | – |
